Measured values published in US20240124865.
Residue numbers refer to the chain shown, from its start. Names may count otherwise.

T1: FRETS-VWF73 substrate (VWF fragment comprising VWFA2 domain residues 1596 to 1668)
T1 chain: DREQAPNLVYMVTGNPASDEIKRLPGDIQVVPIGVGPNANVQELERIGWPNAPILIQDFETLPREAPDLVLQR

B1: ADAMTS13 P1182K variant (Exemplified P1182K variant) (protein)
chain: AAGGILHLELLVAVGPDVFQAHQEDTERYVLTNLNIGAELLRDPSLGAQFRVHLVKMVILTEPEGAPNITANLTSSLLSVCGWSQTINPEDDTDPGHADLVLYITRFDLELPDGNRQVRGVTQLGGACSPTWSCLITEDTGFDLGVTIAHEIGHSFGLEHDGAPGSGCGPSGHVMASDGAAPRAGLAWSPCSRRQLLSLLSAGRARCVWDPPRPQPGSAGHPPDAQPGLYYSANEQCRVAFGPKAVACTFAREHLDMCQALSCHTDPLDQSSCSRLLVPLLDGTECGVEKWCSKGRCRSLVELTPIAAVHGRWSSWGPRSPCSRSCGGGVVTRRRQCNNPRPAFGGRACVGADLQAEMCNTQACEKTQLEFMSQQCARTDGQPLRSSPGGASFYHWGAAVPHSQGDALCRHMCRAIGESFIMKRGDSFLDGTRCMPSGPREDGTLSLCVSGSCRTFGCDGRMDSQQVWDRCQVCGGDNSTCSPRKGSFTAGRAREYVTFLTVTPNLTSVYIANHRPLFTHLAVRIGGRYVVAGKMSISPNTTYPSLLEDGRVEYRVALTEDRLPRLEEIRIWGPLQEDADIQVYRRYGEEYGNLTRPDITFTYFQPKPRQAWVWAAVRGPCSVSCGAGLRWVNYSCLDQARKELVETVQCQGSQQPPAWPEACVLEPCPPYWAVGDFGPCSASCGGGLRERPVRCVEAQGSLLKTLPPARCRAGAQQPAVALETCNPQPCPARWEVSEPSSCTSAGGAGLALENETCVPGADGLEAPVTEGPGSVDEKLPAPEPCVGMSCPPGWGHLDATSAGEKAPSPWGSIRTGAQAAHVWTPAAGSCSVSCGRGLMELRFLCMDSALRVPVQEELCGLASKPGSRREVCQAVPCPARWQYKLAACSVSCGRGVVRRILYCARAHGEDDGEEILLDTQCQGLPRPEPQEACSLEPCPPRWKVMSLGPCSASCGLGTARRSVACVQLDQGQDVEVDEAACAALVRPEASVPCLIADCTYRWHVGTWMECSVSCGDGIQRRRDTCLGPQAQAPVPADFCQHLPKPVTVRGCWAGPCVGQGTPSLVPHEEAAAPGRTTATPAGASLEWSQARGLLFSPAPQPRRLLPGKQENSVQSSACGRQHLEPTGTIDMRGPGQADCAVAIGRPLGEVVTLRVLESSLNCSAGDMLLLWGRLTWRKMCRKLLDMTFSSKTNTLVVRQRCGRPGGGVLLRYGSQLAPETFYRECDMQLFGPWGEIVSPSLSPATSNAGGCRLFINVAPHARIAIHALATNMGAGTEGANASYILIRDTHSLRTTAFHGQQVLYWESESSQAEMEFSEGFLKAQASLRGQYWTLQSWVPEMQDPQSWKGKEGTSRGPFEQKLISEEDLNMHTGHHHHHH
B2: Myc/His6-tagged ADAMTS13 P1180V variant (Exemplified P1180V variant) (protein)
chain: B1 chain with P1106V, K1108P
B3: Myc/His6-tagged ADAMTS13 P1182V variant (Exemplified P1182V variant) (protein)
chain: B1 chain with K1108V
B4: Myc/His6-tagged recombinant wildtype human ADAMTS13 (Exemplified wildtype ADAMTS13) (protein)
chain: B1 chain with K1108P
B5: Myc/His6-tagged ADAMTS13 A1146V variant (Exemplified A1146V variant) (protein)
chain: B1 chain with A1072V, K1108P
B6: ADAMTS13 P1182I variant (Exemplified P1182I variant) (protein)
chain: B1 chain with K1108I
B7: Myc/His6-tagged ADAMTS13 A1144V variant (Exemplified A1144V variant) (protein)
chain: B1 chain with A1070V, K1108P

Biological target: T1, FRETS-VWF73 substrate (VWF fragment …)

Protein	proteolytic activity, FRETS-VWF73 assay, fold increase	proteolytic activity, FRETS-VWF73 assay, absence of VWF-D4CK, fold over wildtype ADAMTS13	proteolytic activity, FRETS-VWF73 assay, in the absence and in the presence of the activating VWF-D4CK fragment	proteolytic activity, FRETS-VWF73 assay, basal (no VWF-D4CK); reference for all other activities
B1	Induces greater than 10-fold increase in activity	–	–	–
B2	–	more than 4-fold higher than wildtype ADAMTS13	displayed significantly higher proteolytic activity compared to wildtype ADAMTS13 and the R568K/F592Y/R660K/Y661F/Y665F variant	–
B3	–	more than 4-fold higher than wildtype ADAMTS13	displayed significantly higher proteolytic activity compared to wildtype ADAMTS13 and the R568K/F592Y/R660K/Y661F/Y665F variant	–
B4	–	–	–	All activities are presented relative to the basal activity of wtADAMTS13 (100%)
B5	–	more than 4-fold higher than wildtype ADAMTS13	displayed significantly higher proteolytic activity compared to wildtype ADAMTS13 and the R568K/F592Y/R660K/Y661F/Y665F variant	–
B6	Induces greater than 10-fold increase in activity	–	–	–
B7	–	more than 4-fold higher than wildtype ADAMTS13	displayed significantly higher proteolytic activity compared to wildtype ADAMTS13 and the R568K/F592Y/R660K/Y661F/Y665F variant	–
